Results on three variants are retold here after IntAct's records for PubMed 25860027.

B1: Ras-related protein Rab-8A (Canis familiaris (dog)), P61007 (parent)
chain: MAKTYDYLFKLLLIGDSGVGKTCVLFRFSEDAFNSTFISTIGIDFKIRTIELDGKRIKLQIWDTAGQERFRTITTAYYRGAMGIMLVYDITNEKSFDNIRNWIRNIEEHASADVEKMILGNKCDVNDKRQVSKERGEKLALDYGIKFMETSAKANINVENAFFTLARDIKAKMDKKLEGNSPQGSNQGVKITPDQQKRSSFFRCVLL
partner: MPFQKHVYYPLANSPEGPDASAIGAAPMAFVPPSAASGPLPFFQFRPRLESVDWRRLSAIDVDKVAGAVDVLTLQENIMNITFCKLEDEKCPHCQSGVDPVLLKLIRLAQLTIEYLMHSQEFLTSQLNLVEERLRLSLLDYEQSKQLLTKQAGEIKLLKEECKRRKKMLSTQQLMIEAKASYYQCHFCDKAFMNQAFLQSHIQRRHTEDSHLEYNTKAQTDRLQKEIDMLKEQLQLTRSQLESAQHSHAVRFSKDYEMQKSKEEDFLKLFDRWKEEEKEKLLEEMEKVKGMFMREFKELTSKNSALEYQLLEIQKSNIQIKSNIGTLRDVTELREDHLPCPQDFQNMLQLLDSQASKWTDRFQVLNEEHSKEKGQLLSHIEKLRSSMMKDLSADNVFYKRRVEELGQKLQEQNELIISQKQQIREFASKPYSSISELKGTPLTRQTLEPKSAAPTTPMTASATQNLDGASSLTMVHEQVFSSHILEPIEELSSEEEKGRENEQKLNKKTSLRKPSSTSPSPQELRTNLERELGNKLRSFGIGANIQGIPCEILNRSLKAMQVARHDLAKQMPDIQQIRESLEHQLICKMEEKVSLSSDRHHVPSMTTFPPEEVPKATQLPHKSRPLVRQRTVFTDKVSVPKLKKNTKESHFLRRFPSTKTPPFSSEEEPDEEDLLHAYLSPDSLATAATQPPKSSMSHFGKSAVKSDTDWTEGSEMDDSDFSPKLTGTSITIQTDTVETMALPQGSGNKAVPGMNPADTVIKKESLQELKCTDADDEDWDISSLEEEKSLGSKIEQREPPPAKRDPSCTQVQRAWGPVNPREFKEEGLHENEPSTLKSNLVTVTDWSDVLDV
B2: Ras-related protein Rab-8A (Canis familiaris (dog)), P61007 (parent)
chain: B1 chain
partner: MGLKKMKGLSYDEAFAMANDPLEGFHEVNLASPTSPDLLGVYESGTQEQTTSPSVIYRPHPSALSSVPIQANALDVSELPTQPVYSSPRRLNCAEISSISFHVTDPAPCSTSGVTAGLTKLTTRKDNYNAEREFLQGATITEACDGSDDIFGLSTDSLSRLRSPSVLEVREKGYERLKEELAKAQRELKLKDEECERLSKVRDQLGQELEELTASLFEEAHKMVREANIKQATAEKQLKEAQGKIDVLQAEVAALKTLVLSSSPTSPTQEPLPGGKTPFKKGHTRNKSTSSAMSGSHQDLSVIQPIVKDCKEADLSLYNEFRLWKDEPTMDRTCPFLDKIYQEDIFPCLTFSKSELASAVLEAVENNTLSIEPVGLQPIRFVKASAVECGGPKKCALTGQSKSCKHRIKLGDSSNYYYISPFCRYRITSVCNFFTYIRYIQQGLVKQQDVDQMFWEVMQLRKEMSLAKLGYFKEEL

In the first experiment the parent is B1. The conditions noted are these: with Dzip1, Q8BMD2-1.
Take MAKTYDYLFKLLLIGDSGVGKNCVLFRFSEDAFNSTFISTIGIDFKIRTIELDGKRIKLQIWDTAGQERFRTITTAYYRGAMGIMLVYDITNEKSFDNIRNWIRNIEEHASADVEKMILGNKCDVNDKRQVSKERGEKLALDYGIKFMETSAKANINVENAFFTLARDIKAKMDKKLEGNSPQGSNQGVKITPDQQKRSSFFRCVLL [T22N]: the “effect of a mutation on the interaction” value was “increasing interaction strength”.
The same measure, in the same setting: the result for MAKTYDYLFKLLLIGDSGVGKTCVLFRFSEDAFNSTFISTIGIDFKIRTIELDGKRIKLQIWDTAGLERFRTITTAYYRGAMGIMLVYDITNEKSFDNIRNWIRNIEEHASADVEKMILGNKCDVNDKRQVSKERGEKLALDYGIKFMETSAKANINVENAFFTLARDIKAKMDKKLEGNSPQGSNQGVKITPDQQKRSSFFRCVLL [Q67L] reads “disrupting interaction strength”.

The variants in the next experiment derive from B2. Particulars: with rab3i_human RAB3IP.
Turning to MAKTYDYLFKLLLIGDSGVGKNCVLFRFSEDAFNSTFISTIGIDFKIRTIELDGKRIKLQIWDTAGQERFRTITTAYYRGAMGIMLVYDITNEKSFDNIRNWIRNIEEHASADVEKMILGNKCDVNDKRQVSKERGEKLALDYGIKFMETSAKANINVENAFFTLARDIKAKMDKKLEGNSPQGSNQGVKITPDQQKRSSFFRCVLL [T22N], the “effect of a mutation on the interaction” value is recorded as “increasing interaction strength”.
